Residue numbers refer to the chain shown, from its start. Blank lines part the entries; values can stand above or below the binder they belong to.
Assays:
[1] = target: T1, PSMA (commercial, Sino Bio cat #15877-H07H) (UniProt Q04609 44-750); test: SDS-PAGE, lysate + PSMA, 3 h 37C
T1 construct: also called receptor

[2] = target: T1, PSMA (commercial, Sino Bio cat …); test: SDS-PAGE, 37C, ~8:1 sdAb:PSMA
[3] = target: T1, PSMA (commercial, Sino Bio cat …); test: SDS-PAGE, overnight 37C, ~7:1 sdAb:PSMA

T1 sequence (Q04609 44-750 limits assumed): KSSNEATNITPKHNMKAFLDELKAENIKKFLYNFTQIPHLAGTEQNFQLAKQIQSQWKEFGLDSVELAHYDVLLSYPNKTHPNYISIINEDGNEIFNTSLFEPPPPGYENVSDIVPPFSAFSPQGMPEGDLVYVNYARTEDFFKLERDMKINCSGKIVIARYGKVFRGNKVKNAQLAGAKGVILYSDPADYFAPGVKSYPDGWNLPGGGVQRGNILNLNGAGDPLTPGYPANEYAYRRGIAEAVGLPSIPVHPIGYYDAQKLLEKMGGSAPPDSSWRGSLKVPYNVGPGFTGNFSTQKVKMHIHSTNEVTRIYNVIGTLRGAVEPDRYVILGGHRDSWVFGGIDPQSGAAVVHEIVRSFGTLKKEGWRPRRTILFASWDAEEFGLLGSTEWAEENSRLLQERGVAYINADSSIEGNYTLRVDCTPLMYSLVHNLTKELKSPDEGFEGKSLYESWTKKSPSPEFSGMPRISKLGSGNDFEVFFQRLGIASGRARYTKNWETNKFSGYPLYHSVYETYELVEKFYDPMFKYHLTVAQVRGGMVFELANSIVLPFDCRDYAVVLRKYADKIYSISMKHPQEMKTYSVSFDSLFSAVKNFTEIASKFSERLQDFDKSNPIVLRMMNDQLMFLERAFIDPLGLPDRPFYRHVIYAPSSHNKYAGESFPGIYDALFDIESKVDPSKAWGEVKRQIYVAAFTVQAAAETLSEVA

- crosslinking efficiency [1]: < 50%
B1: C3-101FSY (VHH)
VHH: QVQLQESGGGSVEAGGSLRLSCARSGWPYSTYSMNWFRQAPGKEREAVAGISSTMSGIIFAESKAGQFTISQDNAKNTVYLQMNNLKPEDTAIYYCAARRXYSLSSSSDDFDYWGQGTQVTVSS
modifications: not fully specified; FSY at 101
notes: plus C-terminal His6

- crosslinking efficiency [1]: < 50%
B2: C3-103FSY (VHH)
VHH: B1 VHH with X101D, S103X
modifications: not fully specified; FSY at 103
notes: plus C-terminal His6; tested as cell lysate

- crosslinking efficiency [1]: > 50%
B3: C3-62FSY (VHH)
VHH: B1 VHH with E62X, X101D
modifications: not fully specified; FSY at 62
notes: as for B2

- crosslinking efficiency [1]: > 50%
B4: C3-58FSY (VHH)
VHH: B1 VHH with I58X, X101D
modifications: not fully specified; FSY at 58
notes: as for B2

- crosslinking efficiency [1]: < 50%
B5: C3-107FSY (VHH)
VHH: B1 VHH with X101D, S107X
modifications: not fully specified; FSY at 107
notes: as for B2

- crosslinking efficiency [2]: < 50%
B6: C2-56FSY (VHH)
VHH: EVQLVESGGGLVQPGGSLTLSCAASRFMISEYSMHWVRQAPGKGLEWVSTINPAGXTDYAESVKGRFTISRDNAKNTLYLQMNSLKPEDTAVYYCDGYGYRGQGTQVTVSS
modifications: not fully specified; FSY at 56
notes: plus C-terminal His6

- crosslinking efficiency [2]: < 50%
B7: C2-100FSY (VHH)
VHH: B6 VHH with X56T, Y100X
modifications: not fully specified; FSY at 100
notes: plus C-terminal His6

- crosslinking efficiency [2]: > 50%
B8: C2-53FSY (VHH)
VHH: B6 VHH with P53X, X56T
modifications: not fully specified; FSY at 53
notes: plus C-terminal His6

- crosslinking efficiency [2]: > 50%
B9: C2-58FSY (VHH)
VHH: B6 VHH with X56T, D58X
modifications: not fully specified; FSY at 58
notes: plus C-terminal His6

- crosslinking efficiency [2]: > 50%
B10: C2-50FSY (VHH)
VHH: B6 VHH with T50X, X56T
modifications: not fully specified; FSY at 50
notes: plus C-terminal His6

- crosslinking efficiency [3]: < 50%
B11: C1-26FSY (VHH)
VHH: QVQLQESGGGSVQAGGSLRLSCTAPXYTDSNYYMSWFRQAPGKEREWVAGVNTGRGSTSYADSVKGRFTISQDNAKNTMFLQMNSLKPEDTAIYYCAVAACHFCDSLPKTQDEYILWGQGTQVTVSS
modifications: not fully specified; FSY at 26
notes: plus C-terminal His6

- crosslinking efficiency [3]: > 50%
B12: C1-29FSY (VHH)
VHH: B11 VHH with X26G, D29X
modifications: not fully specified; FSY at 29
notes: plus C-terminal His6

- crosslinking efficiency [3]: < 50%
B13: C1-99FSY (VHH)
VHH: B11 VHH with X26G, A99X
modifications: not fully specified; FSY at 99
notes: plus C-terminal His6

- crosslinking efficiency [3]: < 50%
B14: C1-105FSY (VHH)
VHH: B11 VHH with X26G, D105X
modifications: not fully specified; FSY at 105
notes: plus C-terminal His6

- crosslinking efficiency [3]: < 50%
B15: C1-111FSY (VHH)
VHH: B11 VHH with X26G, Q111X
modifications: not fully specified; FSY at 111
notes: plus C-terminal His6

- crosslinking efficiency [3]: > 50%
B16: C1-30FSY (VHH)
VHH: B11 VHH with X26G, S30X
modifications: not fully specified; FSY at 30
notes: plus C-terminal His6

- crosslinking efficiency [3]: < 50%
B17: C1-114FSY (VHH)
VHH: B11 VHH with X26G, Y114X
modifications: not fully specified; FSY at 114
notes: plus C-terminal His6

- crosslinking efficiency [3]: < 50%
B18: C1-103FSY (VHH)
VHH: B11 VHH with X26G, F103X
modifications: not fully specified; FSY at 103
notes: plus C-terminal His6

- crosslinking efficiency [3]: < 50%
B19: C1-108FSY (VHH)
VHH: B11 VHH with X26G, P108X
modifications: not fully specified; FSY at 108
notes: plus C-terminal His6

- crosslinking efficiency [3]: < 50%
B20: C1-115FSY (VHH)
VHH: B11 VHH with X26G, I115X
modifications: not fully specified; FSY at 115
notes: plus C-terminal His6

- crosslinking efficiency [3]: < 50%
B21: C1-110FSY (VHH)
VHH: B11 VHH with X26G, T110X
modifications: not fully specified; FSY at 110
notes: plus C-terminal His6

From patent US20260263646A1 (ENLAZA THERAPEUTICS, published 2026)
